Test results published in patent US10363306B2, “Cytokines and neuroantigens for treatment of immune disorders” (East Carolina University, priority 2009, dated 2019).

B1: IFNβ-NAg: Fusion protein: rat IFNβ, enterokinase linker (GDDDDKG), encephalitogenic 73-87 peptide of guinea pig MBP, C-terminal 6-histidine tag (protein)
chain: IDYKQLQFRQSTSIRTCQKLLRQLNGRLNLSYRTDFKIPMEVMHPSQMEKSYTAFAIQVMLQNVFLVFRSNFSSTGWNETIVESLLDELHQQTELLEIILKEKQEERLTWVTSTTTLGLKSYYWRVQRYLKDKKYNSYAWMVVRAEVFRNFSIILRLNRNFQNGDDDDKGPQKSQRSQDENPVVHHHHHH
B2: IFNβ: Rat interferon beta cytokine with enterokinase linker and 6-histidine sequence, no neuroantigen (protein)
chain: IDYKQLQFRQSTSIRTCQKLLRQLNGRLNLSYRTDFKIPMEVMHPSQMEKSYTAFAIQVMLQNVFLVFRSNFSSTGWNETIVESLLDELHQQTELLEIILKEKQEERLTWVTSTTTLGLKSYYWRVQRYLKDKKYNSYAWMVVRAEVFRNFSIILRLNRNFQNGDDDDKGHHHHHH

What was measured:
[1] = tested on: BN-GP T cells; experiment: IFNβ anti-proliferative activity in IL-2 stimulated cultures of BN-GP T cells; type: cell-based, rat; conditions: for Biological activity of IFNβ in expression supernatants: transient transfection of HEK293 cells
Procedure: FIG. 1. The IFNβ-NAg his-tagged fusion protein was biologically active and was purified on nickel resins. (A) To assess whether IFNβ-NAg induced class I MHC expression, thymocytes (5×10^6/ml in complete RPMI) were cultured with or without IFNβ-NAg for 2 days and then were stained with B5 (anti-MHC-I), OX18 (anti-MHC-I), R73 (anti-TCRβ), or OX81 (anti-IL4; isotype control) and were analyzed by flow cytometry. (B) To assess IFNβ-mediated anti-proliferative activity, supernatants from two independently derived IFNβ-NAg expression systems as well as supernatants from several control expression systems were added at designated titrations (x-axis) to IL-2 stimulated cultures of BN-GP T cells. (C) To assess the specificity of anti-proliferative activity, baculovirus supernatants containing IFNβ-NAg were added at designated titrations to cultures of rat (R1T, BN-GP, RsL.11T, RsL.11, or Conal.8D9) or mouse (CTLL) T cells. Proliferative assays (B & C) were pulsed with [^3H]thymidine on the second day of a 3-day culture. (D) Shown is a representative SDS-PAGE analysis of purified IFNβ-NAg.
(§1) FIG. 2. Structure-function analysis of the cytokine and NAg domains of IFNβ fusion proteins. (A) Expression supernatants containing designated IFNβ fusion proteins (see Table 2) were added to cultures of BN-GP T cells at designated titrations (x-axis). (B) The IFNβ-EK-NAg-6his or IFNβ-EK-6his fusion genes were inserted into the pCEP4 expression vector (Invitrogen). Inserts were verified by DNA sequencing, and the genes were expressed by transient transfection of HEK293 cells. Independently derived expression systems of IFNβ-EK-NAg-6his or IFNβ-EK-6his (3 each) were compared in the BN-GP T cell anti-proliferative assay. (C) Independently purified preparations (2 each) of each IFN-β fusion protein (IFNβ-NAg from HEK293 cells, IFNβ-NAg from baculovirus, and IFN-β from HEK293 cells) were added at designated concentrations to assess anti-proliferative activity. Two independently purified preparations of the same fusion protein were tested to verify the reliability of activity for each type of protein. The x-axis was based on the exponent of the molar concentration. For example, a concentration of 100 nM was represented as Log [10^−7]=Log10) (10^−7M)=−7 and was plotted by the exponent of −7. For these experiments (A-C), BN-GP T cells were cultured in IL-2. (D) The MBP-specific RsL.11 T cell clone and irradiated splenic APC were cultured with designated concentrations of purified IFNβ-NAg or GPMBP in the presence or absence of the OX6 anti-MHC-II mAb. (E) Five preparations of purified IFNβ-NAg and six preparations of purified IFN-β were tested for antigenic activity in cultures of RsL.11 T cells and irradiated splenic APC.
(§2) The RsL.11 MBP-specific clone was a stable, IL-2 dependent line derived from Lewis rats sensitized with rat MBP in CFA (Mannie, M. D., and M. S. Norris. 2001. MHC class-II-restricted antigen presentation by myelin basic protein-specific CD4+ T cells causes prolonged desensitization and outgrowth of CD4-responders. Cell Immunol 212:51-62). The RsL.11T clone was a transformed variant of the RsL.11 clone. […]

[2] = tested on: MBP-specific RsL.11 T cell clone; experiment: Antigen-specific proliferation of RsL.11 T cell clone with irradiated splenic APC; type: cell-based, rat
Procedure: as §1, §2

| Molecule | Biological activity of IFNβ in expression supernatants [1] | cytokine activity relative to HEK293-derived protein ([1]; protein purified from baculovirus expression supernatants) | antigenic potency relative to GPMBP ([2]; at low concentrations, concentration eliciting half-maximal response) | peak proliferative response ([2]; compared with GPMBP) | stimulatory activity (antigen-specific proliferation) ([2]; independently purified preparations, RsL.11 T cells and irradiated splenic APC) |
| --- | --- | --- | --- | --- | --- |
| B1 | Potent activity | less active | more potent than intact guinea pig myelin basic protein | substantially less than that stimulated by GPMBP | – |
| B2 | Potent activity | – | – | – | devoid of stimulatory activity |
